Measured values from patent US20250333496A1 (Novo Nordisk, published 2025).
“And” between values parts separate entries of the source, which are not always exact repeats. Identical values can stand only once.

Legend:
[1] = target: T1, human IL-6 (mature hIL-6) (human, UniProt P05231 30-212); assay: cell-based or functional assay
[2] = target: T2, recombinant human HPC4-tagged IL-6 (human, UniProt P05231 30-212); assay: SPR, HPC4-IL-6 captured on anti-HPC4 antibody, VHH injected, 25 C, 1:1 model
T2 construct: captured on an anti-HPC4 antibody in SPR; also called HPC4-human IL6
Description: Binding of purified anti-IL-6 VHHs to recombinant human HPC4-tagged IL-6 (SEQ ID NO: 98) was probed by Surface Plasmon Resonance (SPR).
IL-6 was captured at a flow rate of 10 μL/min for 30 seconds.
Subsequently, concentration series of VHH polypeptides according to Table 33 were injected at a flow rate of 50 μL/min for 200 seconds to allow for binding to […] followed by 600 seconds running buffer (10 mM HEPES, 150 mM NaCl, 5 mM CaCl₂, 0.05% (v/v) Surfactant P20, 1 mg/mL bovine serum albumin, pH 7.4) injection allowing dissociation from IL-6. The running buffer was also used for dilution of anti-IL-6 VHHs and IL-6. Regeneration of the chip was achieved using a regeneration buffer consisting of 50 mM EDTA in running buffer without CaCl₂, 30 seconds contact time, and a 30 μL/min flow rate applied twice to the surface. The binding data were collected at 25° C. at either a Biacore instrument (Cytiva AB, Uppsala) or a Bruker SPR32 (Bruker Daltonics). Data were analysed according to a 1:1 model using either BiaEvaluation or Biacore Insight Evaluation (Cytiva AB, Uppsala) or Bruker Analyser (Bruker Daltonics).

[3] = target: T1, human IL-6 (mature hIL-6); assay: cell-based or functional assay; remark: listed apart in the source

T2 sequence (P05231 other isoform, or with tags, fused parts or gaps limits assumed): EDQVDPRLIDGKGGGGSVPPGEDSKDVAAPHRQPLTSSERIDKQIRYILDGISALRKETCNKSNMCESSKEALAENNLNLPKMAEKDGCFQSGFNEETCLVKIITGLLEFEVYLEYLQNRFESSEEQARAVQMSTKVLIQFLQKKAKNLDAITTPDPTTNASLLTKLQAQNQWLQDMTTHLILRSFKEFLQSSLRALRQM
T1 sequence (P05231 30-212): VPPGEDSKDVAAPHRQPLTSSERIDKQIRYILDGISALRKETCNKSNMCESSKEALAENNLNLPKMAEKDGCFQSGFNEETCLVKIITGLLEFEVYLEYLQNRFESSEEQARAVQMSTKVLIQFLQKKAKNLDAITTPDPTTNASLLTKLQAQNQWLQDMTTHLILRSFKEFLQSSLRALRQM

Binder | IC 50 (nM), reporter gene assay, 0% HSA [1] [nM] | IC 50 (nM), reporter gene assay, 1% HSA [1] [nM] | Kd [2] | koff [2] | kon [2] | IC50 (nM), STAT3-luc reporter gene assay [3] [nM] | Relative IC50 to Reference Polypeptide_29 [3] [fold]
Compound 1 (VHH, Chem. 24 (C16 diacid substituent) on Cys in position 4 and on Cys in position 6 of the extension (SEQ ID NO: 72), Polypeptide derivative; extension E2 at the C-terminus of the VHH; also called VHH_1.12-E2 with 2x Chem. 24) VHH: QLQLVESGGGWVQPGGSLQLSCTTSGRTFSSYAVGWFRQAPGQEREFVADIGENADNTWYAHSVKGRFTISRDNAKNTVYLQMDSLKPEDTAVYYCAADSYGVGGGAQGYYDSWGQGTQVTVSS | 0.029 | 0.06 | 0.0637 nM and 0.0454 nM | 0.000364 s⁻¹ and 0.000371 s⁻¹ | 5.67e+06 M⁻¹ s⁻¹ and 8.18e+06 M⁻¹ s⁻¹ | – | –
Polypeptide_22 (VHH, VHH_1.2 with C-terminal His tag extension E1; also called [VHH_1.2]-E1) VHH: EVQLVESGGGLVQPGGSLKLSCTTSGRRFSEYAVGWFRQGPGKEREFVADIGEQAENTWYAESVLGRFTISRDDAKNTVYLQMDSLKPEDTAVYYCAADKYGVGGNAQGYYDSWGQGTQVTVSS | 0.029 | – | 0.00721 nM | 0.000147 s⁻¹ | 2.03e+07 M⁻¹ s⁻¹ | – | –
Polypeptide_49 (VHH) VHH: QVQLVESGGGLVQPGGSLKLSCTTSGRRFSEYAVGWFRQAPGKEREFVADIGEQAENTWYAESVLGRFTISRDDAKNTVYLEMDGLKPEDTAVYYCAADKYGVGGNAQGYYDSWGQGTQVTVSS | – | – | – | – | – | 0.051 | 1.5
Compound 3 (VHH, Chem. 24 (C16 diacid substituent) on Cys in position 4 and on Cys in position 6 of the extension (SEQ ID NO: 72); found mass includes position 1 Gln to pyroGlu formation) VHH: QLQLVESGGGWVQPGGSLQLSCTTSGRRFSEYAVGWFRQAPGQEREFVADIGEQAENTWYAHSVLGRFTISRDEAKNTVYLQMDSLKPEDTAVYYCAADKYGVGGNAQGYYDSWGQGTQVTVSS | 0.029 | 0.029 | – | – | – | – | –
Polypeptide_46 (VHH) VHH: QLQLVESGGGWVQPGGSLQLSCTTSGRRFSEYAVGWFRQAPGQEREFVADIGEQAENTWYAHSVLGRFTISRDEAKNTVYLQMDSLKPEDTAVYYCAADKYGVGGNAQGYYDSWGQGTQVTVSS | 0.021 | – | – | – | – | – | –
Compound 6 (VHH, Chem. 24 (C16 diacid substituent) on Cys in position 4 and on Cys in position 6 of the extension (SEQ ID NO: 72), Polypeptide derivative; extension E2 at the C-terminus of the VHH; also called VHH_1.3-E2 with 2x Chem. 24) VHH: EVQLVESGGGLVQPGGSLQLSCTTSGRRFSEYAVGWFRQGPGKEREFVADIGEQAENTWYAHSVLGRFTISRDDAKNTVYLQMDSLKPEDTAVYYCAADKYGVGGNAQGYYDSWGQGTQVTVSS | 0.018 | 0.016 | 0.0161 nM and 0.0214 nM | 7.82e-05 s⁻¹ and 9.95e-05 s⁻¹ | 4.94e+06 M⁻¹ s⁻¹ and 4.65e+06 M⁻¹ s⁻¹ | – | –
Compound 10 (VHH, Chem. 24 (C16 diacid substituent) on Cys in position 4 and on Cys in position 6 of the extension (SEQ ID NO: 72), Polypeptide derivative; extension E2 at the C-terminus of the VHH; also called VHH_1.7-E2 with 2x Chem. 24) VHH: EVQLVESGGGLVQPGGSLQLSCTTSGRKFDEYAVGWFRQGPGQEREFVADIGENAENTWYAESVLGRFTISRDDAKNTVYLEMDGLKPEDTAVYYCAADKYGVGGNAQGYYDSWGQGTQVTVSS | 0.022 | 0.016 | 0.0191 nM and 0.0208 nM | 0.000108 s⁻¹ and 9.33e-05 s⁻¹ | 4.48e+06 M⁻¹ s⁻¹ and 5.68e+06 M⁻¹ s⁻¹ | – | –
Compound 4 (VHH, Chem. 24 (C16 diacid substituent) on Cys in position 4 and on Cys in position 6 of the extension (SEQ ID NO: 72), Polypeptide derivative; extension E2 at the C-terminus of the VHH; also called VHH_1.1-E2 with 2x Chem. 24) VHH: EVQLVESGGGWVQPGGSLQLSCTTSGRRFSEYAVGWFRQAPGQEREFVADIGEQAENTWYAHSVLGRFTISRDEAKNTVYLQMDSLKPEDTAVYYCAADKYGVGGNAQGYYDSWGQGTQVTVSS | 0.024 | 0.015 | 0.0142 nM and 0.0191 nM | 6.98e-05 s⁻¹ and 9.08e-05 s⁻¹ | 4.9e+06 M⁻¹ s⁻¹ and 4.75e+06 M⁻¹ s⁻¹ | – | –
Polypeptide_24 (VHH, VHH_1.3 with C-terminal His tag extension E1; also called [VHH_1.3]-E1) VHH: EVQLVESGGGLVQPGGSLQLSCTTSGRRFSEYAVGWFRQGPGKEREFVADIGEQAENTWYAHSVLGRFTISRDDAKNTVYLQMDSLKPEDTAVYYCAADKYGVGGNAQGYYDSWGQGTQVTVSS | 0.019 | – | 0.00321 nM | 0.000132 s⁻¹ | 4.12e+07 M⁻¹ s⁻¹ | – | –
Compound 9 (VHH, Chem. 24 (C16 diacid substituent) on Cys in position 4 and on Cys in position 6 of the extension (SEQ ID NO: 72), Polypeptide derivative; extension E2 at the C-terminus of the VHH; also called VHH_1.6-E2 with 2x Chem. 24; Chem. 31) VHH: EVQLVESGGGLVQPGGSLKLSCTTSGRRFSEYAVGWFRQAPGKEREFVADIGEQAENTWYAESVLGRFTISRDDAKNTVYLEMDGLKPEDTAVYYCAADKYGVGGNAQGYYDSWGQGTQVTVSS | 0.022 | 0.014 | 0.0187 nM and 0.0218 nM and 0.0223 nM | 8.71e-05 s⁻¹ and 0.000105 s⁻¹ and 0.000101 s⁻¹ | 4.66e+06 M⁻¹ s⁻¹ and 4.82e+06 M⁻¹ s⁻¹ and 4.53e+06 M⁻¹ s⁻¹ | – | –
Polypeptide_31 (VHH, VHH_1.7 with C-terminal His tag extension E1; also called [VHH_1.7]-E1) VHH: EVQLVESGGGLVQPGGSLQLSCTTSGRKFDEYAVGWFRQGPGQEREFVADIGENAENTWYAESVLGRFTISRDDAKNTVYLEMDGLKPEDTAVYYCAADKYGVGGNAQGYYDSWGQGTQVTVSS | 0.023 | – | 0.0175 nM | 0.000154 s⁻¹ | 8.82e+06 M⁻¹ s⁻¹ | – | –
Polypeptide_47 (VHH, VHH_1.15 with C-terminal His tag extension E1; also called [VHH_1.15]-E1) VHH: QLQLVESGGGWVQPGGSLKLSCTTSGRRFSEYAVGWFRQAPGKEREFVADIGEQAENTWYAHSVLGRFTISRDEAKNTVYLQMNSLKPEDTAVYYCAADKYGVGGNAQGYYDSWGQGTQVTVSS | 0.017 | 0.01 | – | 0.00014 s⁻¹ and 0.000208 s⁻¹ and 0.000137 s⁻¹ | 2.59e+07 M⁻¹ s⁻¹ and 1.05e+07 M⁻¹ s⁻¹ and 2.03e+07 M⁻¹ s⁻¹ | – | –

More lines, now with the values ahead:

IC 50 (nM), reporter gene assay, 0% HSA [1] [nM] | IC 50 (nM), reporter gene assay, 1% HSA [1] [nM] | Kd [2] | koff [2] | kon [2] | IC50 (nM), STAT3-luc reporter gene assay [3] [nM] | Relative IC50 to Reference Polypeptide_29 [3] [fold] | Binder
– | – | – | – | – | 0.049 | 1.4 | Polypeptide_50 (VHH) VHH: ELQLVESGGGLVQPGGSLKLSCTTSGRRFSEYAVGWFRQAPGKEREFVADIGEQAENTWYAESVLGRFTISRDDAKNTVYLEMDGLKPEDTAVYYCAADKYGVGGNAQGYYDSWGQGTQVTVSS
0.02 | 0.017 | 0.0221 nM and 0.0296 nM | 0.000101 s⁻¹ and 0.000123 s⁻¹ | 4.58e+06 M⁻¹ s⁻¹ and 4.16e+06 M⁻¹ s⁻¹ | – | – | Compound 8 (VHH, Chem. 24 (C16 diacid substituent) on Cys in position 4 and on Cys in position 6 of the extension (SEQ ID NO: 72), Polypeptide derivative; extension E2 at the C-terminus of the VHH; also called VHH_1.5-E2 with 2x Chem. 24) VHH: EVQLVESGGGLVQPGGSLQLSCTTSGRKFDEYAVGWFRQGPGKEREFVADIGENAENTWYAESVLGRFTISRDDAKNTVYLQMDSLKPEDTAVYYCAADKYGVGGNAQGYYDSWGQGTQVTVSS
0.025 | 0.019 | 0.0252 nM and 0.0338 nM | 0.000127 s⁻¹ and 0.000154 s⁻¹ | 5.05e+06 M⁻¹ s⁻¹ and 4.56e+06 M⁻¹ s⁻¹ | – | – | Compound 7 (VHH, Chem. 24 (C16 diacid substituent) on Cys in position 4 and on Cys in position 6 of the extension (SEQ ID NO: 72), Polypeptide derivative; extension E2 at the C-terminus of the VHH; also called VHH_1.4-E2 with 2x Chem. 24) VHH: EVQLVESGGGLVQPGGSLQLSCTTSGRKFDEYAVGWFRQAPGKEREFVADIGENAENTWYAHSVLGRFTISRDDAKNTVYLQMDSLKPEDTAVYYCAADKYGVGGNAQGYYDSWGQGTQVTVSS
0.019 | 0.012 | 0.0159 nM and 0.0214 nM | 7.82e-05 s⁻¹ and 9.95e-05 s⁻¹ | 4.94e+06 M⁻¹ s⁻¹ and 4.65e+06 M⁻¹ s⁻¹ | – | – | Compound 5 (VHH, Chem. 24 (C16 diacid substituent) on Cys in position 4 and on Cys in position 6 of the extension (SEQ ID NO: 72), Polypeptide derivative; extension E2 at the C-terminus of the VHH; also called VHH_1.2-E2 with 2x Chem. 24) VHH: EVQLVESGGGLVQPGGSLKLSCTTSGRRFSEYAVGWFRQGPGKEREFVADIGEQAENTWYAESVLGRFTISRDDAKNTVYLQMDSLKPEDTAVYYCAADKYGVGGNAQGYYDSWGQGTQVTVSS
0.027 | – | 0.00508 nM | 0.00013 s⁻¹ | 2.56e+07 M⁻¹ s⁻¹ | – | – | Polypeptide_28 (VHH, VHH_1.5 with C-terminal His tag extension E1; also called [VHH_1.5]-E1) VHH: EVQLVESGGGLVQPGGSLQLSCTTSGRKFDEYAVGWFRQGPGKEREFVADIGENAENTWYAESVLGRFTISRDDAKNTVYLQMDSLKPEDTAVYYCAADKYGVGGNAQGYYDSWGQGTQVTVSS
0.026 | – | 0.00755 nM | 0.000163 s⁻¹ | 2.16e+07 M⁻¹ s⁻¹ | – | – | Polypeptide_27 (VHH, VHH_1.4 with C-terminal His tag extension E1; also called [VHH_1.4]-E1) VHH: EVQLVESGGGLVQPGGSLQLSCTTSGRKFDEYAVGWFRQAPGKEREFVADIGENAENTWYAHSVLGRFTISRDDAKNTVYLQMDSLKPEDTAVYYCAADKYGVGGNAQGYYDSWGQGTQVTVSS
0.065 | 0.041 | 0.0523 nM | 0.000348 s⁻¹ | 6.66e+06 M⁻¹ s⁻¹ | – | – | Compound 2 (VHH, Chem. 24 (C16 diacid substituent) on Cys in position 4 and on Cys in position 6 of the extension (SEQ ID NO: 72), Polypeptide derivative; extension E2 at the C-terminus of the VHH; also called VHH_1.13-E2 with 2x Chem. 24) VHH: EVQLVESGGGLVQAGGSLQLSCTASGGTFSEYAMAWFRQAPGQEREFVTDIGESGGTWYADSVKGRFTISRDNAKNTVYLQMDSLRPEDTAVYYCAADSYGVGGGAERYYDSWGQGTQVTVSS
– | 0.021 | 0.0543 nM | 0.000216 s⁻¹ | 7.36e+06 M⁻¹ s⁻¹ | – | – | Compound 12 (VHH, Chem. 24 (C16 diacid substituent) on Cys in position 4 and on Cys in position 6 of the extension (SEQ ID NO: 72), Polypeptide derivative; extension E2 at the C-terminus of the VHH; also called VHH_1.17-E2 with 2x Chem. 24) VHH: EVQLVESGGGLVQPGGSLQLSCAASGFTFSNYWMYWVRQAPGQGLEWVSGINTGGSTPDYADSVKGRFAISRDNAKNTLYLQMDSLRPEDTAVYYCAADTPRVFRLDHYSPLGQGTQVTVSS
